This note sets out measurements from US20240141039A1 (AGENUS, published 2024).

Like-named read-outs stand apart in the source and are kept apart here.

Assay [1] concerns the target T1, wild type full-length cynomolgus monkey TIGIT expressed on CHO cells (cynomolgus monkey, UniProt A0A7N9I9V4 89-312).
T1 construct: whole, on cells; also called cynomolgus TIGIT-CHO cells
The experiment in a line: flow cytometry, blocking of human CD155-Fc-PE binding to CHO cells expressing cynomolgus TIGIT. (A flow cytometer gives signals particle by particle.)

The target of assay [2] is T2, full-length ECD of human TIGIT (His-tagged) (human).
T2 construct: also called His-tagged human TIGIT; human TIGIT extracellular domain
T2 chain: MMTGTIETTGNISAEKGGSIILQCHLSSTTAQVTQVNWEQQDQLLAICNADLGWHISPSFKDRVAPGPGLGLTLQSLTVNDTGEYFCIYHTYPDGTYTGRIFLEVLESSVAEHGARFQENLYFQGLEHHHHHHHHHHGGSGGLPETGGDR
Nature of the assay: SPR Biacore T200, Protein A capture, 1:1 model, experiment #2. Here is the method: (§1) Briefly, surface plasmon resonance experiments were performed using a Biacore T200 instrument, and the association rate (kₐ), dissociation rate (kd), and dissociation constant (KD) were calculated from each experiment using a 1:1 binding model with Biacore T200 Evaluation Software.
(§2) Multispecific molecules were captured using a 30-sec injection at a flow rate of 10 μl/min to reach about 1000 resonance units (RUs). […] The sensor chip was regenerated between cycles with two 30-sec injections of 10 mM glycine, pH 1.5. Sensorgrams were evaluated and fit to a simple Langmuir 1:1 interaction model using the global data analysis option of BIAevaluation 3.0 software. Data quality was verified by visually inspecting deviations and curve fitting, and by evaluating the parameters of Rₘₐₓ, Chi2, and Tc.
On the technique in general: In SPR one partner is held on a chip, and binding of the other changes the refractive index at the surface.

Assay [3] concerns the target T2, full-length ECD of human TIGIT …. Nature of the assay: SPR Biacore T200, geomean of experiments #1 and #2. Here is the method: as §1, §2
Assay [4] addresses T3, wild type full-length human TIGIT expressed on cells (human, UniProt Q495A1 22-244).
T3 construct: whole, on cells; also called human TIGIT-CHO; human TIGIT CHO cells
T3 sequence (looked up): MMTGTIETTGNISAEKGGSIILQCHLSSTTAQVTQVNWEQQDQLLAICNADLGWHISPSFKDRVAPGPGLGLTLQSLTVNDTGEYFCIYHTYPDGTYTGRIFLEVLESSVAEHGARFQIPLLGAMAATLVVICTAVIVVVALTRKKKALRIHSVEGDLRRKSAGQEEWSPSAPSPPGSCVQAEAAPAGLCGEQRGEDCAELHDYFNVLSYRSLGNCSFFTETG
Nature of the assay: flow cytometry, blocking of human CD155-Fc-PE binding to CHO cells expressing human TIGIT. On the procedure:
(§3) A 4× concentrated intermediate stock of each multispecific molecule was prepared in a microplate. Antibodies were serially diluted 1-to-3 in FACS buffer. […] Lastly, 25 μL of human TIGIT-CHO cells, prepared as described above, were added to each well. After a 30-minute incubation on ice, the cells were washed twice with cold FACS Buffer, and the cells were analyzed by flow cytometry (BD LSR Fortessa Flow Cytometer). The data were analyzed using the FlowJo software by sequentially gating on the FSC-A vs. SSC-A and SSC-H vs. SSC-A. Mean fluorescence intensity (MFI) values for PE were calculated, and the data were plotted by GraphPad Prism software and analyzed as described above.

Assay [5] addresses T4, full-length human FcγRIIIa variant V/V expressed on CHO cells (human, UniProt P08637 17-254).
T4 construct: whole, on cells; also called human FcγRIIIa-CHO (variant V/V); human FcγRIIIa (V/V) CHO cells
Nature of the assay: flow cytometry, human FcγRIIIa (V/V) CHO cells, representative experiment. On the procedure:
For the antibody binding assay, a frozen aliquot of human FcγRIIIa-CHO cells (variant V/V or variant F/F) was thawed at 37° C. and then transferred to a tube containing DPBS supplemented with 0.5% Bovine Serum Albumin and 0.05% Sodium Azide (FACS Buffer). Cells were centrifuged at 300 g for five minutes. The supernatant was discarded, and cells resuspended in FACS buffer were seeded in a 96-well U-bottom tissue culture plate at a density of 2×10⁵ cells per well in 50 μL. In a separate microplate, a 2× concentrated intermediate stock of each antibody was prepared. Antibodies were serially diluted 1-to-4 in FACS buffer. A total of 11 working dilutions ranging from 60 μg/mL to 0.000057 μg/mL were prepared. Fifty microlitres of each dilution were then transferred to the microplate containing human FcγRIIIa-CHO (variant V/V or variant F/F) cells. The cells were then incubated for 45 minutes at 4° C. […] After a 30-minute incubation on ice, the cells were washed twice with cold FACS Buffer, and the cells were analyzed by flow cytometry (BD LSR Fortessa Flow Cytometer). The data were analyzed using the FlowJo software by sequentially gating the FSC-A vs. SSC-A, and SSC-H vs. SSC-A. Mean fluorescence intensity (MFI) values for PE were calculated, and the data were plotted by GraphPad Prism software.

Assay [6] addresses T3, wild type full-length human TIGIT …. The experiment in a line: flow cytometry, blocking of human CD155-Fc-PE binding to CHO cells expressing human TIGIT. On the procedure:
as §3, with “antibody” for “multispecific molecule”, “1-to-4” for “1-to-3”
The source holds these as a separate data set.

Assay [7] concerns the target T1, wild type full-length cynomolgus monkey …. Nature of the assay: flow cytometry on CHO cells expressing cynomolgus TIGIT, PE anti-human IgG Fc detection.
Assay [8] shares this target. Nature of the assay: flow cytometry, cynomolgus TIGIT CHO cells, geomean of 2 experiments.

T1 sequence (A0A7N9I9V4 entry or part of it): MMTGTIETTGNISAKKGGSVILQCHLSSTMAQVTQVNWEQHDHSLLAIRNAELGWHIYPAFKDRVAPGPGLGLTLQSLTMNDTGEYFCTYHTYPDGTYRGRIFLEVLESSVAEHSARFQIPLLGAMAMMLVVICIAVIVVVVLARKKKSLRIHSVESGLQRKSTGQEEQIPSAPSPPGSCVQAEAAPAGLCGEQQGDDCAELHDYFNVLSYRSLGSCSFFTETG
T4 sequence (P08637 other isoform, or with tags, fused parts or gaps mutant limits assumed): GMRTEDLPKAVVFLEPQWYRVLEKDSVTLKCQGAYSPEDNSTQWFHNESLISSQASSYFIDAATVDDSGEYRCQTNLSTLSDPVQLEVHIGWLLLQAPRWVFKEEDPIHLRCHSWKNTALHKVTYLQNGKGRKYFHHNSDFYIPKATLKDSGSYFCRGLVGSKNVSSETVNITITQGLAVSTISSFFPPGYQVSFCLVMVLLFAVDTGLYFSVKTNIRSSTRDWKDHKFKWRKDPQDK

B1: anti-TIGIT×CD96 multispecific molecule BA123 (bispecific antibody, human IgG1, kappa, lambda)
heavy 1: QVQLVQSGAEVKKPGASVKVSCKASGYTFTSYGISWVRQAPGQGLEWMGWISAYNANTNYAQKLQGRVTMTTDTSTSTAYMELRSLRSDDTAVYYCARSAGVLGGMDVWGRGTLVTVSSASTKGPSVFPLAPSSKSTSGGTAALGCLVKDYFPEPVTVSWNSGALTSGVHTFPAVLQSSGLYSLSSVVTVPSSSLGTQTYICNVNHKPSNTKVDKRVEPKSCDKTHTCPPCPAPELLGGPDVFLFPPKPKDTLMISRTPEVTCVVVDVSHEDPEVKFNWYVDGVEVHNAKTKPREEQYNSTYRVVSVLTVLHQDWLNGKEYKCKVSNKALPAPIEKTISKAKGQPREPQVYTLPPSREEMTKNQVSLSCAVKGFYPSDIAVEWESNGQPENNYKTTPPVLDSDGSFFLVSKLTVDKSRWQQGNVFSCSVMHEALHNHYTQKSLSLSPG
light 1: not shown
heavy 2: EVQLVQSGAEVKKPGSSVKVSCKASGYTFASYGISWVRQAPGQGLEWMGGITPFFNRVDVAEKFQGRVTITADKSTSTAYIELSSLRSEDTAVYYCARDLRRGGVGDAFDIWGRGTLVTVSSASTKGPSVFPLAPSSKSTSGGTAALGCLVKDYFPEPVTVSWNSGALTSGVHTFPAVLQSSGLYSLSSVVTVPSSSLGTQTYICNVNHKPSNTKVDKRVEPKSCDKTHTCPPCPAPELLGGPDVFLFPPKPKDTLMISRTPEVTCVVVDVSHEDPEVKFNWYVDGVEVHNAKTKPREEQYNSTYRVVSVLTVLHQDWLNGKEYKCKVSNKALPLPEEKTISKAKGQPREPQVYTLPPSREEMTKNQVSLWCLVKGFYPSDIAVEWESNGQPENNYKTTPPVLDSDGSFFLYSKLTVDKSRWQQGNVFSCSVMHEALHNHYTQKSLSLSPG
light 2: QSALTQPRSVSGSPGQSVTISCTGTSPDVGSHAYRSWYQQHPGKAPKLMIYEVSYRPSGVSNRFSGSKSGNTASLTISGLQAEDEADYYCSSYPPSSATVFGAGTKLTVLGQPKAAPSVTLFPPSSEELQANKATLVCLISDFYPGAVTVAWKADSSPVKAGVETTTPSKQSNNKYAASSYLSLTPEQWKSHRSYSCQVTHEGSTVEKTVAPTEC
notes: copies: 1 + 1 + 1 + 1
With B1, in assay [1], the “IC50 (read off the curve)” value is ~2 µg/mL.

B2: anti-TIGIT×CD96 multispecific molecule BA127 (bispecific antibody, human IgG1, kappa, lambda)
heavy 1: QVQLVQSGAEVKKPGASVKVSCKASGYTFTTYALHWVRQAPGQRLEWMGWINTGSGDTKYSQKFQGRVTITRDTSASTAYMELSSLRSEDTAVYYCARSLGVYYGMDVWGQGTLVTVSSASTKGPSVFPLAPSSKSTSGGTAALGCLVKDYFPEPVTVSWNSGALTSGVHTFPAVLQSSGLYSLSSVVTVPSSSLGTQTYICNVNHKPSNTKVDKRVEPKSCDKTHTCPPCPAPELLGGPDVFLFPPKPKDTLMISRTPEVTCVVVDVSHEDPEVKFNWYVDGVEVHNAKTKPREEQYNSTYRVVSVLTVLHQDWLNGKEYKCKVSNKALPAPIEKTISKAKGQPREPQVYTLPPSREEMTKNQVSLSCAVKGFYPSDIAVEWESNGQPENNYKTTPPVLDSDGSFFLVSKLTVDKSRWQQGNVFSCSVMHEALHNHYTQKSLSLSPG
light 1: not shown
heavy 2: B1 heavy 2
light 2: B1 light 2
notes: Anti-CD96 arm = BA139, anti-TIGIT arm = BA150; copies: 1 + 1 + 1 + 1
B2: in assay [2], the Kd (in general, the free concentration of one partner at which half of the binding sites on the other are occupied at equilibrium, for simple one-to-one binding) amounted to 0.611 nM; the koff – broadly, the first-order rate constant of dissociation – came out at 0.000385 s⁻¹; the kon (in general, a measure of how fast the partners come together) was determined as 631000 M⁻¹ s⁻¹. The Kd in assay [3] amounted to 0.59 nM. The “IC50 (read off the curve)” value in assay [4] was ~0.1 µg/mL.

B3: anti-TIGIT monospecific antibody BA148 (antibody, human IgG1, lambda)
heavy: EVQLVQSGAEVKKPGSSVKVSCKASGYTFASYGISWVRQAPGQGLEWMGGITPFFNRVDVAEKFQGRVTITADKSTSTAYIELSSLRSEDTAVYYCARDLRRGGVGDAFDIWGRGTLVTVSSASTKGPSVFPLAPSSKSTSGGTAALGCLVKDYFPEPVTVSWNSGALTSGVHTFPAVLQSSGLYSLSSVVTVPSSSLGTQTYICNVNHKPSNTKVDKRVEPKSCDKTHTCPPCPAPELLGGPDVFLFPPKPKDTLMISRTPEVTCVVVDVSHEDPEVKFNWYVDGVEVHNAKTKPREEQYNSTYRVVSVLTVLHQDWLNGKEYKCKVSNKALPLPEEKTISKAKGQPREPQVYTLPPSREEMTKNQVSLTCLVKGFYPSDIAVEWESNGQPENNYKTTPPVLDSDGSFFLYSKLTVDKSRWQQGNVFSCSVMHEALHNHYTQKSLSLSPGK
light: B1 light 2
notes: IgG1; also called anti-TIGIT IgG1 antibody BA148
In the case of B3, the “Area under the curve (AUC)” value in assay [5] was found to be 50100. Further, the “IC50 (read off the curve)” value in assay [6] was ~0.01 µg/mL. The EC50 (read off the curve) (in general, the concentration giving half of the maximal effect) in assay [7] was ~0.04 µg/mL. Also, the response in assay [8] was half-maximal at 0.0534 µg/mL (EC50).
